Non-standard residues stand in square brackets, D forms with d. Residues, ends and D or L forms follow the SMILES beside them. *: point of attachment. DOTA = O=C(O)CN1CCN(CC(=O)O)CCN(CC(=O)*)CCN(CC(=O)O)CC1; 1Nal = N[C@@H](Cc1cccc2ccccc12)C(=O)O; NMeNle = CCCC[C@H](NC)C(=O)O
Key:
in vivo = conditions: female, BALB/c nude (athymic), mouse, iv, 20 pmol peptide, total radioactivity
Method: Biodistribution studies were performed in female athymic BALB/c nude mice (Charles River Laboratories, Sulzfeld, Germany) with A431-CCK2R xenografts induced and animals treated as described previously. The study was approved by the Austrian Ministry of Science (2022–0.351.553). […] Statistical analysis was performed on the data sets using the unpaired two-tailed t-test with a significance level of 0.05.

A431-CCK2R cells = conditions: cited from earlier work; for Bmax: A431-CCK2R cells, nM printed only with the first value of the sentence; for Kd: same cell line (A431-CCK2R), nM printed only with the PP-F11N value

Compound	tissue uptake at 4 h (in vivo; kidney uptake) [%ID/g]	tissue uptake at 4 h (in vivo; stomach uptake) [%ID/g]	tissue uptake at 4 h (in vivo; tumour uptake) [%ID/g]	Bmax (A431-CCK2R cells) [nM]	Kd (A431-CCK2R cells) [nM]
CCCC[C@@H](C(=O)N[C@@H](CC(=O)O)C(=O)N[C@@H](Cc1cccc2ccccc12)C(N)=O)N(C)C(=O)[C@H](Cc1c[nH]c2ccccc12)NC(=O)CNC(=O)[C@H](Cc1ccc(O)cc1)NC(=O)[C@H](C)NC(=O)[C@@H](CCC(=O)O)NC(=O)CN1CCN(CC(=O)O)CCN(CC(=O)O)CCN(CC(=O)O)CC1 [[^111In]In-DOTA-MGS5, metal not drawn]	3.9 ± 0.5	8.2 ± 2.4			
CSCC[C@H](NC(=O)[C@H](Cc1c[nH]c2ccccc12)NC(=O)CNC(=O)[C@H](Cc1ccc(O)cc1)NC(=O)[C@H](C)NC(=O)[C@@H](CCC(=O)O)NC(=O)CN1CCN(CC(=O)O)CCN(CC(=O)O)CCN(CC(=O)O)CC1)C(=O)N[C@@H](CC(=O)O)C(=O)N[C@@H](Cc1cccc2ccccc12)C(N)=O [[^111In]In-DOTA-[1Nal^8]MG11, metal not drawn] ({DOTA}-[dE]AYGWMD[1Nal]-NH2)	1.1 ± 0.1	1.2 ± 0.3	1.2 ± 0.2		
CCCC[C@@H](C(=O)N[C@@H](CC(=O)O)C(=O)N[C@@H](Cc1ccccc1)C(N)=O)N(C)C(=O)[C@H](Cc1c[nH]c2ccccc12)NC(=O)CNC(=O)[C@H](Cc1ccc(O)cc1)NC(=O)[C@H](C)NC(=O)[C@@H](CCC(=O)O)NC(=O)CN1CCN(CC(=O)O)CCN(CC(=O)O)CCN(CC(=O)O)CC1 [[^111In]In-DOTA-[(N-Me)Nle^6]MG11, metal not drawn] ({DOTA}-[dE]AYGW[NMeNle]DF-NH2)	3 ± 0.3	2.9 ± 0.6	12.3 ± 4.2		
[^111In]In-DOTA-PP-F11: 111In-labelled DOTA-(DGlu)6-Ala-Tyr-Gly-Trp-Met-Asp-Phe-NH2 (AYGWMDF; 111In-DOTA-(DGlu)6, C-terminal amide; printed: Ala-Tyr-Gly-Trp-Met-Asp-Phe-)				1.21 ± 0.06	15.9 ± 2.2
[^177Lu]Lu-DOTA-PP-F11: 177Lu-labelled DOTA-(DGlu)6-Ala-Tyr-Gly-Trp-Met-Asp-Phe-NH2 (AYGWMDF; 177Lu-DOTA-(DGlu)6, C-terminal amide; printed: Ala-Tyr-Gly-Trp-Met-Asp-Phe-)				0.65 ± 0.06	41.7 ± 9.7
